Measured values: IntAct's records for PubMed 29039417

B1: BBSome complex member BBS1 (Homo sapiens), Q8NFJ9 (parent)
chain: MAAASSSDSDACGAESNEANSKWLDAHYDPMANIHTFSACLALADLHGDGEYKLVVGDLGPGGQQPRLKVLKGPLVMTESPLPALPAAAATFLMEQHEPRTPALALASGPCVYVYKNLRPYFKFSLPQLPPNPLEQDLWNQAKEDRIDPLTLKEMLESIRETAEEPLSIQSLRFLQLELSEMEAFVNQHKSNSIKRQTVITTMTTLKKNLADEDAVSCLVLGTENKELLVLDPEAFTILAKMSLPSVPVFLEVSGQFDVEFRLAAACRNGNIYILRRDSKHPKYCIELSAQPVGLIRVHKVLVVGSTQDSLHGFTHKGKKLWTVQMPAAILTMNLLEQHSRGLQAVMAGLANGEVRIYRDKALLNVIHTPDAVTSLCFGRYGREDNTLIMTTRGGGLIIKILKRTAVFVEGGSEVGPPPAQAMKLNVPRKTRLYVDQTLREREAGTAMHRAFQTDLYLLRLRAARAYLQALESSLSPLSTTAREPLKLHAVVQGLGPTFKLTLHLQNTSTTRPVLGLLVCFLYNEALYSLPRAFFKVPLLVPGLNYPLETFVESLSNKGISDIIKVLVLREGQSAPLLSAHVNMPGSEGLAAA
partner: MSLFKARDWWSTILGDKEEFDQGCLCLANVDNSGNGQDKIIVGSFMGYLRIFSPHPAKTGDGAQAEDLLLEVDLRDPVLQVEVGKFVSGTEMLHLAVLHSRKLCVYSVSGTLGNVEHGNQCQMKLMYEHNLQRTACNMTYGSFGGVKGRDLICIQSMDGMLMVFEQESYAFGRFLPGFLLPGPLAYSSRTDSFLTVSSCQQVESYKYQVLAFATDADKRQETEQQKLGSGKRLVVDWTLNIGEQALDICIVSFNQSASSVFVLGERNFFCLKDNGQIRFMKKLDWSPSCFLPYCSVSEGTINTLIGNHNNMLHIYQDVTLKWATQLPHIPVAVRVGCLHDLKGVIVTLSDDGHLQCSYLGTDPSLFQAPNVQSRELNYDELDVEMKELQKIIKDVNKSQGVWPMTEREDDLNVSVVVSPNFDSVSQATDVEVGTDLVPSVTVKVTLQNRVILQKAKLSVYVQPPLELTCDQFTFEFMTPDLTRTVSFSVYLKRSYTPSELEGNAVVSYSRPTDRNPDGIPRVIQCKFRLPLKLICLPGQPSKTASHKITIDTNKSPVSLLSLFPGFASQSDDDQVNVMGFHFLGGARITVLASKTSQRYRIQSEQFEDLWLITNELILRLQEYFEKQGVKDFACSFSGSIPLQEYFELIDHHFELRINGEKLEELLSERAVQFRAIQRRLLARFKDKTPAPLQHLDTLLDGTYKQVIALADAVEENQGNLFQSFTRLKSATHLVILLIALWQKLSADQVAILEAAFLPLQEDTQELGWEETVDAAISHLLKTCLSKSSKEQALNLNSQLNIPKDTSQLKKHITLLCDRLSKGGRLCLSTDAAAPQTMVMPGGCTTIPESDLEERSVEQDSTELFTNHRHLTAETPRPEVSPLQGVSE

Variants of: B1
Settings: with pthb1_human BBS9, Q3SYG4

| Variant | effect of a mutation on the interaction |
| --- | --- |
| L495A | with no effect |
| T438E | with no effect |
| T438K | with no effect |
| T510E | with no effect |
| T510K | with no effect |
| Y546K | with no effect |
| P531K | with no effect |
| P531A | with no effect |
| T511K | with no effect |
| T511E | with no effect |
| A580K | with no effect |
| S476E | with no effect |
| S413K | with no effect |
| S413A | with no effect |
| L505K | disrupting interaction strength |
| G572E | with no effect |
| G572A | with no effect |
| T481K | with no effect |
| T481E | with no effect |
| L544A | with no effect |
| L544E | with no effect |
| F499E | disrupting interaction strength |
| F499A | with no effect |
| S479A | with no effect |
| S574K | with no effect |

| Variant | effect of a mutation on the interaction |
| --- | --- |
| Q506A | with no effect |
| Q506K | with no effect |
| E588A | with no effect |
| T431A | with no effect |
| L527A | with no effect |
| L527E | with no effect |
| P497K | with no effect |
| P497A | with no effect |
| P497E | with no effect |
| S509E | with no effect |
| S509K | with no effect |
| P513A | with no effect |
| L468K | with no effect |
| F534K | with no effect |
| E525K | with no effect |
| L530T | disrupting interaction strength |
| L530E | disrupting interaction strength |
| L530R | disrupting interaction strength |
| L530D | disrupting interaction strength |
| G586K | with no effect |
| G586A | with no effect |
| N545K | with no effect |
| L548E | disrupting interaction strength |
| P419A | with no effect |
| D455E | with no effect |

| Variant | effect of a mutation on the interaction |
| --- | --- |
| N583E | with no effect |
| L425K | with no effect |
| R462K | with no effect |
| E553K | with no effect |
| P418A | with no effect |
| N524A | disrupting interaction strength |
| N524E | with no effect |
| N524K | with no effect |
| V491K | with no effect |
| A591E | with no effect |
| K558E | with no effect |
| G559K | with no effect |
| H581A | with no effect |
| H581K | with no effect |
| L503E | disrupting interaction strength |
| A444E | with no effect |
| A444K | with no effect |
| L522A | with no effect |
| L522K | with no effect |
| G543A | with no effect |
| G543K | with no effect |
| F535E | with no effect |
| L461A | with no effect |
| R483K | with no effect |
| L577K | with no effect |

| Variant | effect of a mutation on the interaction |
| --- | --- |
| L577A | with no effect |
| T480K | with no effect |
| T480E | with no effect |
| L458E | with no effect |
| T454E | with no effect |
| E549A | with no effect |
| L578K | with no effect |
| L578A | with no effect |
| S556E | with no effect |
| D562E | with no effect |
| F551E | with no effect |
| F551A | with no effect |
| L433A | with no effect |
| P477E | with no effect |
| P477A | with no effect |
| H504E | with no effect |
| S474K | with no effect |
| K487E | with no effect |
| T498K | with no effect |
| T498E | with no effect |
| T498A | with no effect |
| I563A | with no effect |
| S554A | with no effect |
| Q493A | with no effect |
| V492E | with no effect |

| Variant | effect of a mutation on the interaction |
| --- | --- |
| V492K | with no effect |
| K500A | with no effect |
| V582E | with no effect |
| V582A | with no effect |
| V415A | with no effect |
| V415K | with no effect |
| G494E | with no effect |
| E414K | with no effect |
| Q421K | with no effect |
| A451E | with no effect |
| N426E | with no effect |
| N426K | with no effect |
| N507A | with no effect |
| N507E | disrupting interaction strength |
| R442A | with no effect |
| R442K | with no effect |
| P576K | disrupting interaction strength |
| P576E | with no effect |
| V519K | disrupting interaction strength |
| V519E | disrupting interaction strength |
| V519A | with no effect |
| V566E | disrupting interaction strength |
| V566K | disrupting interaction strength |
| V566A | with no effect |
| P428A | with no effect |

| Variant | effect of a mutation on the interaction |
| --- | --- |
| K430E | with no effect |
| K430A | with no effect |
| L456E | with no effect |
| L590A | with no effect |
| L590E | with no effect |
| R512A | with no effect |
| R512K | with no effect |
| A533E | with no effect |
| D436A | disrupting interaction strength |
| D436E | with no effect |
| T508A | with no effect |
| T508K | with no effect |
| L439K | with no effect |
| L439A | with no effect |
| R440E | with no effect |
| Q437K | with no effect |
| C520A | with no effect |
| Y523A | disrupting interaction strength |
| Y434E | with no effect |
| L540A | with no effect |
| L540E | disrupting interaction strength |
| Y528E | disrupting interaction strength |
| L567E | with no effect |
| R532E | with no effect |
| R532A | with no effect |

| Variant | effect of a mutation on the interaction |
| --- | --- |
| P417A | with no effect |
| P417E | with no effect |
| E441A | with no effect |
| A422E | with no effect |
| Y467E | with no effect |
| Y467A | with no effect |
| G496A | with no effect |
| L459S | disrupting interaction strength |
| S529K | with no effect |
| R465A | with no effect |
| R465K | with no effect |
| P538A | with no effect |
| P538K | with no effect |
| L501A | disrupting interaction strength |
| F521A | with no effect |
| L518K | with no effect |
| L486K | disrupting interaction strength |
| S561E | with no effect |
| I564K | disrupting interaction strength |
| I564E | disrupting interaction strength |
| V568E | disrupting interaction strength |
| V568K | disrupting interaction strength |

Variants of: B1
Settings: with pthb1_human BBS9, Q3SYG4
Remark: another data set of the same source

| Variant | effect of a mutation on the interaction |
| --- | --- |
| Y546K | disrupting interaction strength |
| N507E | with no effect |

Variants of: B1
Settings: with pthb1_human BBS9, Q3SYG4
Remark: another data set of the same source

| Variant | effect of a mutation on the interaction |
| --- | --- |
| L548E | with no effect |
